Source: patent US20150166606A1 (RA PHARMACEUTICALS, published 2015)
Where two headings read alike, the source gives them in different places. Bridge positions count the residues as written; N and C are the ends. Ends that are not written are not given here. mXylyl = xylyl linker from dibromoxylene joining the two cysteines; des‑NH2 = missing amino-terminal amine group

T1: tissue kallikrein KLK13 (R&D Systems) (human, UniProt Q9UKR3 17-277, limits assumed)
T1 sequence (looked up): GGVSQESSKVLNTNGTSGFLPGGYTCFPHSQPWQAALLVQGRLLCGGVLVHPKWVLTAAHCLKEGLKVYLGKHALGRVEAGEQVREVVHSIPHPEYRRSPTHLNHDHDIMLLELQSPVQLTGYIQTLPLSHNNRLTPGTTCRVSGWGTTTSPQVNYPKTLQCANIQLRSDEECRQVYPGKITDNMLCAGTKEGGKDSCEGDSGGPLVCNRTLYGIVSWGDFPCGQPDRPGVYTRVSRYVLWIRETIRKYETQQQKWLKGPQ

T2: Factor XIIa (Enzyme Research Laboratories) (human, UniProt P00748 20-615, limits assumed)
T2 sequence (looked up): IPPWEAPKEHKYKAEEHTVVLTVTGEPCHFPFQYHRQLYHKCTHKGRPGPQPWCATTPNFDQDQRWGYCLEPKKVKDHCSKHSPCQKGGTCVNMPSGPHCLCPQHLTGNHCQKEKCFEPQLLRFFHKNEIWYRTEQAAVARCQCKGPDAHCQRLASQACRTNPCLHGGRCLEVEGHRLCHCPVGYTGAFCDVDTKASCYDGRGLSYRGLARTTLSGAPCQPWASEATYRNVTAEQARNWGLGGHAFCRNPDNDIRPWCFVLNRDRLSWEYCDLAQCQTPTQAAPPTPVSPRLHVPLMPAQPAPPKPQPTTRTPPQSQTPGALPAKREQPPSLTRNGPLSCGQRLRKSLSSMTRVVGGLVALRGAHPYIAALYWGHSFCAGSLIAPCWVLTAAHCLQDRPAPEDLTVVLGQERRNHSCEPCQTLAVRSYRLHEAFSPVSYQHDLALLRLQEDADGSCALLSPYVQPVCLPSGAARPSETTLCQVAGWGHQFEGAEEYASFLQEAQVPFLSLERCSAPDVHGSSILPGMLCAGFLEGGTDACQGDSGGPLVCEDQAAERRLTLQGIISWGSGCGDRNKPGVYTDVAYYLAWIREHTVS

T3: Factor VIIa (Enzyme Research Laboratories) (human, UniProt P08709 61-466)
T3 sequence (looked up): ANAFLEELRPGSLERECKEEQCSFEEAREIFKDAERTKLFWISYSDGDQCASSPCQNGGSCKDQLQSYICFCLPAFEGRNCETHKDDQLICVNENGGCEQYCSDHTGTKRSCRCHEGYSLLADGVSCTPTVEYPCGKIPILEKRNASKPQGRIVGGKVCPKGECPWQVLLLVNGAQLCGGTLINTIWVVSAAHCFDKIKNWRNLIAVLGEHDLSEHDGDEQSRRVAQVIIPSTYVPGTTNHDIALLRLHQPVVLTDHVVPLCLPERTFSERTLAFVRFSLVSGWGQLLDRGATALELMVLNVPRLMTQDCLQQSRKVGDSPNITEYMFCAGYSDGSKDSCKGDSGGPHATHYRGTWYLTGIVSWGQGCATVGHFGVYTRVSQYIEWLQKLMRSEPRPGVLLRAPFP

B1: R2104 (peptide)
peptide: MCNYWSPWTECSA-NH2
modifications: cysteine pairing not given here
B2: R2004 (peptide)
peptide: MCESICRVLRYSE-NH2
modifications: linker 2-6 via mXylyl
B3: R2003 (peptide)
peptide: MCNYWSPWTECSR-NH2
modifications: linker 2-11 via mXylyl
B4: R2051 (peptide)
peptide: {des‑NH2}-CESICRV-NH2
modifications: linker 1-5 via mXylyl; not fully specified (residue 1); printed as [mXylyl(1,5)](des-NH2)C-ESICRV-NH2

How the values were obtained:
Test in all cases: cell-based or functional assay
[1] = molecular target: plasmin (Enzyme Research Laboratories) (human, UniProt P00747 97-810, limits assumed)
Sequence of plasmin (Enzyme Research Laboratories) (P00747 97-810 limits assumed): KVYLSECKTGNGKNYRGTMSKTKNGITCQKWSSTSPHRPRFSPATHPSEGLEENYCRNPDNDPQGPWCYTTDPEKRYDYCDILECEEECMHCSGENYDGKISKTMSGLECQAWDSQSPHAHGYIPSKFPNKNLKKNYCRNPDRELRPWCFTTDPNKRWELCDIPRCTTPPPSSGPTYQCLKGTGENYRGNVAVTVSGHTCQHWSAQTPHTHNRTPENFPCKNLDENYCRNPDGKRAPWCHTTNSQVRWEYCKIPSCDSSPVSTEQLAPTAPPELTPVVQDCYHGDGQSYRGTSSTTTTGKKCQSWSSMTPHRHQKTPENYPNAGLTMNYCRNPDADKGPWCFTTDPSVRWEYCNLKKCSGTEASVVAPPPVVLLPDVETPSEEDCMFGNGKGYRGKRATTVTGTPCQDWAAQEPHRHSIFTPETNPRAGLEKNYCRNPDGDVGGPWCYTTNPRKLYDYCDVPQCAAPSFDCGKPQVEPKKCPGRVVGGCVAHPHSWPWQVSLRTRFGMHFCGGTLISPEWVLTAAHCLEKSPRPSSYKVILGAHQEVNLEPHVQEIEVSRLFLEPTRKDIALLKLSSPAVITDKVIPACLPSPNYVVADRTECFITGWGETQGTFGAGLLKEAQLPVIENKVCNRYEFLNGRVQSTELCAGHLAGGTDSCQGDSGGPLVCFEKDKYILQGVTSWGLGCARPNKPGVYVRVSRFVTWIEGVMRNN

[2] = molecular target: T1, tissue kallikrein KLK13 (R&D Systems)
[3] = molecular target: T2, Factor XIIa (Enzyme Research …)
[4] = molecular target: thrombin (Enzyme Research Laboratories) (human, UniProt P00734 328-622)
[5] = molecular target: Factor Xa (Enzyme Research Laboratories) (human, UniProt P00742 41-488, limits assumed)
Sequence of Factor Xa (Enzyme Research Laboratories) (P00742 41-488 limits assumed): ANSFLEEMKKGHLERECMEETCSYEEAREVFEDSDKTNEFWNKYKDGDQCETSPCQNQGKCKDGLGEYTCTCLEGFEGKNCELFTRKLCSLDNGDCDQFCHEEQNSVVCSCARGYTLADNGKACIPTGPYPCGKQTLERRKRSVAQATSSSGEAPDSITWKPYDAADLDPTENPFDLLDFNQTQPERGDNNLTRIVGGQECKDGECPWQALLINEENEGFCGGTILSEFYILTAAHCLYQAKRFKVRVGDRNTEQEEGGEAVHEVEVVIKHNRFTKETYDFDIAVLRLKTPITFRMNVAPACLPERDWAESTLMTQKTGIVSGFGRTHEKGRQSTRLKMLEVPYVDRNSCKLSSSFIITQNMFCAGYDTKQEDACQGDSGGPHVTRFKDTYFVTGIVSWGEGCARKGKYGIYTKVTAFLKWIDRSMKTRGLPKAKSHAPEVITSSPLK

[6] = molecular target: mouse plasma kallikrein (R&D Systems) (mouse, UniProt P26262 20-638)
Sequence of mouse plasma kallikrein (R&D Systems) (P26262 20-638 limits assumed): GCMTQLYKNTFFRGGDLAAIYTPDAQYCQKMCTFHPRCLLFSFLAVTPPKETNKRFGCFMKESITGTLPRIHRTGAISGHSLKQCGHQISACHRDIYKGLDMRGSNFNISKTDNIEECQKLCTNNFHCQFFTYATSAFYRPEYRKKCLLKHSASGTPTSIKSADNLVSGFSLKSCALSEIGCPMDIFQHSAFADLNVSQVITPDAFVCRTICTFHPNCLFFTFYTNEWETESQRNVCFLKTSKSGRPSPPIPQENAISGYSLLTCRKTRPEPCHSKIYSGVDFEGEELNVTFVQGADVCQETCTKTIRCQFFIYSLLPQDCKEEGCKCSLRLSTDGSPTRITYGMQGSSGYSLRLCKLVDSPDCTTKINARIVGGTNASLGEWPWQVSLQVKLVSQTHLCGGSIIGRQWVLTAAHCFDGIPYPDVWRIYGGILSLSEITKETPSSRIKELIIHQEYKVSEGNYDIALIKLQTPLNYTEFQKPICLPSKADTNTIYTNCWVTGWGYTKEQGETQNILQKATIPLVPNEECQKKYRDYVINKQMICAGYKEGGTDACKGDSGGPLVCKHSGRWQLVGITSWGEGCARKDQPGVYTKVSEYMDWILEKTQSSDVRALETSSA

[7] = molecular target: T4, Activated human plasma kallikrein (Enzyme Research Laboratories, HPKa 1303) (human, UniProt P03952 20-638)
T4 sequence (P03952 20-638 limits assumed): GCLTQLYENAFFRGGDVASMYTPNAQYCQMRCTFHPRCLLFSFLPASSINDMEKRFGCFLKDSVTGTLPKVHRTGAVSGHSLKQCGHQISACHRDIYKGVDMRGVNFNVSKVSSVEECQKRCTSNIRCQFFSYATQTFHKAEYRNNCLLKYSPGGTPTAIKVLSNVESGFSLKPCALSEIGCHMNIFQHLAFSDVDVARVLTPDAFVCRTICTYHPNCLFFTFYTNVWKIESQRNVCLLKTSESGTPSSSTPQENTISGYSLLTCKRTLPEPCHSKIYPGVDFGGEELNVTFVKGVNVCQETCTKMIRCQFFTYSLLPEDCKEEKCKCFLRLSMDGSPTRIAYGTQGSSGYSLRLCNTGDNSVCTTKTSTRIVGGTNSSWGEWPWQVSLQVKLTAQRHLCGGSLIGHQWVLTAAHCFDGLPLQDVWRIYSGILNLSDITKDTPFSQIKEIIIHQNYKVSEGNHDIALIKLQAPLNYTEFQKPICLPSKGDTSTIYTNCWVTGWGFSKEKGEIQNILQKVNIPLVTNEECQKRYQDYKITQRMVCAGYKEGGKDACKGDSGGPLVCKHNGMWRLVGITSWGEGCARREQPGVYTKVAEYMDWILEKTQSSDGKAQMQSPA

[8] = molecular target: Factor XIa (Enzyme Research Laboratories) (human, UniProt P03951 19-625)
Sequence of Factor XIa (Enzyme Research Laboratories) (P03951 19-625 limits assumed): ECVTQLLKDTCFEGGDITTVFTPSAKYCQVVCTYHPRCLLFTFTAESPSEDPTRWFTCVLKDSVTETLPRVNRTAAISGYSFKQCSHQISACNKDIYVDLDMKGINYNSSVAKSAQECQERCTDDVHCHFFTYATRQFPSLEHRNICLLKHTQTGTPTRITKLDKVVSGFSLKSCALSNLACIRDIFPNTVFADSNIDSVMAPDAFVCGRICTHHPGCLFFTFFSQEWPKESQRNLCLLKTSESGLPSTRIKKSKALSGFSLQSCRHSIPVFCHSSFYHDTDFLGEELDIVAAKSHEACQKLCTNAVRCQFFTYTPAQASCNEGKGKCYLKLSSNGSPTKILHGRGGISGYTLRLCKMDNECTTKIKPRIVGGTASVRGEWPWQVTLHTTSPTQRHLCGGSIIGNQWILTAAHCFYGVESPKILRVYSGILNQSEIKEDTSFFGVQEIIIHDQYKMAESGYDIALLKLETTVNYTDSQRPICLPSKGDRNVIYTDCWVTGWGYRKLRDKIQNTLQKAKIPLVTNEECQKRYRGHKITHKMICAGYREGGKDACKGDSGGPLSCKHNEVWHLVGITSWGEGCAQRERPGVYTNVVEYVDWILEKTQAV

[9] = molecular target: T3, Factor VIIa (Enzyme Research …)
[10] = molecular target: T4, Activated human plasma kallikrein …; remark: listed apart in the source
[11] = molecular target: T4, Activated human plasma kallikrein …; remark: listed apart in the source
[12] = molecular target: T4, Activated human plasma kallikrein …; remark: listed apart in the source

Plasmin IC50 [1] [µM] | KLK13 IC50 [2] [µM] | Factor XIIa IC50 [3] [µM] | Thrombin IC50 [4] [µM] | Factor Xa IC50 [5] [µM] | Mouse Kallikrein IC50 [6] [µM] | Human Kallikrein IC50 [7] [µM] | Factor XIa IC50 [8] [µM] | Factor VIIa IC50 [9] [µM] | Avg. IC50 [10] [µM] | Avg. IC50 [11] [µM] | Avg. IC50 [12] [µM] | Binder
5.8 | > 100 | > 100 | > 100 | > 100 | 0.0112 | 0.0034 | > 5 | > 100 | 0.0034 |  |  | B1
 |  |  |  |  |  |  |  |  |  | 0.000501 | 0.000501 | B2
 |  |  |  |  |  |  |  |  | 0.0031 | 0.0031 |  | B3
> 100 | > 100 | > 100 | > 100 | > 100 | 0.0193 | 0.0129 | > 8.3 | > 100 |  |  | 0.0129 | B4
